Key:
soluble KDR Ig4-7 domain [1] = target: T1, soluble KDR Ig4-7 domain (human, UniProt P35968 328-764); assay: ELISA, KDR Ig4-7 coat (1:1 diln.), antibody 1 ug/mL
T1 construct: domain: Ig4-7 domain; also called b-KDRIg4-7-myc-his; Ig4-7 domain of KDR; not shown: myc-his tag of the pSecTag construct
Experimental: (§1) The cross-reactivity of purified antibodies was tested against KDR mouse ortholog KDR mouse ortholog (mouse VEGFR2, or Flk-1) and human VEGFR1 (Flt-1). The ability of the antibodies to bind soluble KDR Ig4-7 domain and to the entire KDR extracellular domain (ECD) was also measured.
(§2) Cross-reactivity experiments were carried out and measured using an ELISA based assay as described in Example 6. […] Antibody controls included IgG1 and IgG4 (Sigma-Aldrich, Cat. #15154 and #14639, respectively).

human KDR [2] = target: T2, human KDR (human, UniProt P35968 20-1356); assay: FACS competition on 293T/human KDR transfectants; antibody 5 ug/mL first, then competitor VEGF165 50 ng/mL; bound VEGF165 detected
T2 construct: whole, on cells; also called VEGFR2; endogenously-expressed KDR in HUVEC cells
Experimental: (§3) Transfected cells were then seeded at 50,000 cells/well and incubated with 5 μg/mL of candidate antibody for one hour at 4° C. […] After washing, the cells were incubated with Cy5-conjugated rabbit anti-goat antibody plus 7AAD for 15 minutes at 4° C.

[3] = target: T3, whole KDR-ECD (Cat. # 676490, Calbiochem) (human, UniProt P35968 20-764); assay: ELISA, KDR-ECD coat 5 ug/mL, antibody 1 ug/mL
T3 construct: extracellular domain; Bought soluble protein; also called soluble KDR; VEGF Receptor 2 D1-7
Experimental: as §1, §2

cynomolgus KDR = target: T4, cynomolgus KDR (cynomolgus monkey, UniProt A0A2K5VE63 20-1356); assay: FACS on Cyno KDR/293T transfectants, antibody 5 ug/mL
T4 construct: whole, on cells; also called Cyno KDR
Experimental: The binding of purified antibodies to cell-bound cynomolgus KDR (with parental cells as negative control) was tested by FACS analysis in this assay.
Cynomolgus KDR was cloned in 3 pieces. One piece was PCR amplified from cynomolgus lung cDNA, and the remaining two pieces were PCR amplified from cynomolgus kidney cDNA. The three PCR products were inserted into pCR3.1 Bid vector. […] Transfected cells were seeded at 50,000 cells/well and incubated with 5 μg/mL of candidate antibody for one hour at 4° C. The cells were then washed and incubated with secondary antibody (Cy5-conjugated goat anti-human antibody, or Cy5-conjugated rabbit anti-goat antibody, plus 7-Amino-Actinomycin (7AAD)) for 15 minutes at 4° C. Binding between cynomolgus KDR and purified antibody was detected by FACS analysis.

human KDR [4] = target: T2, human KDR; assay: cell-based or functional assay
[5] = target: T3, whole KDR-ECD (Cat. # 676490, …); assay: ELISA, KDR-ECD coat 5 ug/mL, antibody 0.1 ug/mL
Experimental: as §1, §2

human KDR [6] = target: T2, human KDR; assay: cell-based or functional assay; remark: listed apart in the source
human KDR [7] = target: T2, human KDR; assay: FACS titration of purified antibody on HUVEC cells (FACS Kd)
Experimental: The binding affinities of the purified antibodies for endogenously-expressed KDR in HUVEC cells was measured. HUVEC cells were seeded at 150,000 cells/well and incubated with titrations of purified antibody for 4 hours at 4° C. The cells were then washed and incubated with goat anti-human IgG-Fc-Cy5+5 μg/mL 7-Amino-Actinomycin (7AAD) for 30 minutes at 4° C. Bound KDR was detected using FACS analysis.

human KDR [8] = target: T2, human KDR; assay: FACS competition on 293T/human KDR transfectants; antibody 5 ug/mL first, then competitor VEGF165 50 ng/mL; inhibition of VEGF binding
Experimental: as §3

soluble KDR Ig4-7 domain [9] = target: T1, soluble KDR Ig4-7 domain; assay: ELISA, KDR Ig4-7 coat (1:1 diln.), antibody 0.1 ug/mL
Experimental: as §1, §2

[10] = target: T3, whole KDR-ECD (Cat. # 676490, …); assay: ELISA, KDR-ECD coat 5 ug/mL, antibody 0.01 ug/mL
Experimental: as §1, §2

human KDR [11] = target: T2, human KDR; assay: cell-based or functional assay; remark: listed apart in the source
soluble KDR Ig4-7 domain [12] = target: T1, soluble KDR Ig4-7 domain; assay: ELISA, KDR Ig4-7 coat (1:1 diln.), antibody 0.01 ug/mL
Experimental: as §1, §2

[13] = target: T5, mouse KDR (Flk-1)/Fc (Cat. #443-KD/CF, R&D Systems, Inc.) (mouse, UniProt P35918 20-762); assay: ELISA, Flk-1 coat 5 ug/mL, antibody 0.01 ug/mL
T5 construct: Bought reagent; also called mouse VEGFR2; KDR mouse ortholog; not shown: Fc of the bought fusion protein
Experimental: as §1, §2

[14] = target: T5, mouse KDR (Flk-1)/Fc (Cat. #443-KD/CF, …); assay: ELISA, Flk-1 coat 5 ug/mL, antibody 1 ug/mL
Experimental: as §1, §2

[15] = target: T5, mouse KDR (Flk-1)/Fc (Cat. #443-KD/CF, …); assay: ELISA, Flk-1 coat 5 ug/mL, antibody 0.1 ug/mL
Experimental: as §1, §2

T1 sequence (P35968 328-764): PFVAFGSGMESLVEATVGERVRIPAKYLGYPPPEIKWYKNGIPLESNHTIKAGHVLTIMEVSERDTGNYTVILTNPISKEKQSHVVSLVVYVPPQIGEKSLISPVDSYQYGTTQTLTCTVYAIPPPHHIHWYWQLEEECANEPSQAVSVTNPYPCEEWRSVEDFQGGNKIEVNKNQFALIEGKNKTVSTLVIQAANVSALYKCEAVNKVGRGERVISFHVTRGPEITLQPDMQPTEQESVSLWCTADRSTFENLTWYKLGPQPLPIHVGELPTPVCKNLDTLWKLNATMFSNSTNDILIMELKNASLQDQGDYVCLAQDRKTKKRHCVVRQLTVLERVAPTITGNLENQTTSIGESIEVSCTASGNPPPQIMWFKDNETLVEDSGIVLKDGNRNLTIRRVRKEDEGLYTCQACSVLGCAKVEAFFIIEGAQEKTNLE
T4 sequence (A0A2K5VE63 entry or part of it): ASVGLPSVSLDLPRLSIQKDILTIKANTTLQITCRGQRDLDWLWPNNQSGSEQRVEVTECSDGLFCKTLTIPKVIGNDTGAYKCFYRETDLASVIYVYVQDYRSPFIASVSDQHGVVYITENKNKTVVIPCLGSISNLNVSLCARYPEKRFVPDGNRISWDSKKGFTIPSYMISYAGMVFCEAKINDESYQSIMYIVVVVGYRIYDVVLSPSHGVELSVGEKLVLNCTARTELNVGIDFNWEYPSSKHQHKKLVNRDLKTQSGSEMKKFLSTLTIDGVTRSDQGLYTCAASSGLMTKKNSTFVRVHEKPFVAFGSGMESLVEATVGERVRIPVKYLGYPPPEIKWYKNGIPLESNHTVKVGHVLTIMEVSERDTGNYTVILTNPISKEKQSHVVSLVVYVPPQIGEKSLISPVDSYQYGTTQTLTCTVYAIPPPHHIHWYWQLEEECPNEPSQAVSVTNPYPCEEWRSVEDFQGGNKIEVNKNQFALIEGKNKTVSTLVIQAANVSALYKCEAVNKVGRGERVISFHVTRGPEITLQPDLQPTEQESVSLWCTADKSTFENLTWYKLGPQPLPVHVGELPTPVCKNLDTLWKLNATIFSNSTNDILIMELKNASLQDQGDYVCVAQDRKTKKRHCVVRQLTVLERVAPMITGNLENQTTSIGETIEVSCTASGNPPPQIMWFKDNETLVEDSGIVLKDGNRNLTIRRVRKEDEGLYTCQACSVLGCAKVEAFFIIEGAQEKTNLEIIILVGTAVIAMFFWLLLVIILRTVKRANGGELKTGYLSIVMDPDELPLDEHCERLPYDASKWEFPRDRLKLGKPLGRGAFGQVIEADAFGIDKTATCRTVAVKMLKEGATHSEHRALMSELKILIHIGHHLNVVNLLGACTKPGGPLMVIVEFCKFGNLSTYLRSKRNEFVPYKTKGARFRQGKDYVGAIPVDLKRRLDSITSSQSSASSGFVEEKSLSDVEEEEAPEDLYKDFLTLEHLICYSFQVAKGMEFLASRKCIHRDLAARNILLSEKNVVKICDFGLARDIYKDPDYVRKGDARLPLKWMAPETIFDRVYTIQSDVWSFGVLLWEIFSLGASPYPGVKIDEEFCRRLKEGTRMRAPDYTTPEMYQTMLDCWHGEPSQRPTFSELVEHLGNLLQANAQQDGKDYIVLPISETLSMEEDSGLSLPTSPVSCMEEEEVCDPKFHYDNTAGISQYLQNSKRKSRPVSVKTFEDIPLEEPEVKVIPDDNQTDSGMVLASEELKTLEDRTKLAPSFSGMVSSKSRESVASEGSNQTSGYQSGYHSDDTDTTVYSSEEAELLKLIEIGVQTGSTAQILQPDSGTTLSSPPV
T5 sequence (P35918 20-762 limits assumed): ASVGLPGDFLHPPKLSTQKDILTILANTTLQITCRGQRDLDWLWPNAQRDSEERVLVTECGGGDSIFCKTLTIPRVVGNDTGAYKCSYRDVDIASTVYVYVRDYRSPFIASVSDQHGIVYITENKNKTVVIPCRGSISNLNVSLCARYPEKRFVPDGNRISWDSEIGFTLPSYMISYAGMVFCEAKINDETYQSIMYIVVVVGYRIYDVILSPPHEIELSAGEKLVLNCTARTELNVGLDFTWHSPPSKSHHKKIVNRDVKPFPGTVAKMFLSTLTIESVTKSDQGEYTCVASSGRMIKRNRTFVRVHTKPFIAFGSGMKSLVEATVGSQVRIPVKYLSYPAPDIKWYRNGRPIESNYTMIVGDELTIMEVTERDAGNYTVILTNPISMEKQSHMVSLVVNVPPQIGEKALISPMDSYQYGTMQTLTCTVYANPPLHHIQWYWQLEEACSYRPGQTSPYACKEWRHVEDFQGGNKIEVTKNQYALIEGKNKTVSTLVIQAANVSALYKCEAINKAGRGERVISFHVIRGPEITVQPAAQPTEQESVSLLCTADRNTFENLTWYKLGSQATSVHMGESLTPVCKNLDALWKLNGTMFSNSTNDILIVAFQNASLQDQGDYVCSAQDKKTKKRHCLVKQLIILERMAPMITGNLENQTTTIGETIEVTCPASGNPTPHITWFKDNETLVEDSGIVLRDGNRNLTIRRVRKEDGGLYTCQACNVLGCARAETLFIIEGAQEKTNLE
T2 sequence (P35968 20-1356): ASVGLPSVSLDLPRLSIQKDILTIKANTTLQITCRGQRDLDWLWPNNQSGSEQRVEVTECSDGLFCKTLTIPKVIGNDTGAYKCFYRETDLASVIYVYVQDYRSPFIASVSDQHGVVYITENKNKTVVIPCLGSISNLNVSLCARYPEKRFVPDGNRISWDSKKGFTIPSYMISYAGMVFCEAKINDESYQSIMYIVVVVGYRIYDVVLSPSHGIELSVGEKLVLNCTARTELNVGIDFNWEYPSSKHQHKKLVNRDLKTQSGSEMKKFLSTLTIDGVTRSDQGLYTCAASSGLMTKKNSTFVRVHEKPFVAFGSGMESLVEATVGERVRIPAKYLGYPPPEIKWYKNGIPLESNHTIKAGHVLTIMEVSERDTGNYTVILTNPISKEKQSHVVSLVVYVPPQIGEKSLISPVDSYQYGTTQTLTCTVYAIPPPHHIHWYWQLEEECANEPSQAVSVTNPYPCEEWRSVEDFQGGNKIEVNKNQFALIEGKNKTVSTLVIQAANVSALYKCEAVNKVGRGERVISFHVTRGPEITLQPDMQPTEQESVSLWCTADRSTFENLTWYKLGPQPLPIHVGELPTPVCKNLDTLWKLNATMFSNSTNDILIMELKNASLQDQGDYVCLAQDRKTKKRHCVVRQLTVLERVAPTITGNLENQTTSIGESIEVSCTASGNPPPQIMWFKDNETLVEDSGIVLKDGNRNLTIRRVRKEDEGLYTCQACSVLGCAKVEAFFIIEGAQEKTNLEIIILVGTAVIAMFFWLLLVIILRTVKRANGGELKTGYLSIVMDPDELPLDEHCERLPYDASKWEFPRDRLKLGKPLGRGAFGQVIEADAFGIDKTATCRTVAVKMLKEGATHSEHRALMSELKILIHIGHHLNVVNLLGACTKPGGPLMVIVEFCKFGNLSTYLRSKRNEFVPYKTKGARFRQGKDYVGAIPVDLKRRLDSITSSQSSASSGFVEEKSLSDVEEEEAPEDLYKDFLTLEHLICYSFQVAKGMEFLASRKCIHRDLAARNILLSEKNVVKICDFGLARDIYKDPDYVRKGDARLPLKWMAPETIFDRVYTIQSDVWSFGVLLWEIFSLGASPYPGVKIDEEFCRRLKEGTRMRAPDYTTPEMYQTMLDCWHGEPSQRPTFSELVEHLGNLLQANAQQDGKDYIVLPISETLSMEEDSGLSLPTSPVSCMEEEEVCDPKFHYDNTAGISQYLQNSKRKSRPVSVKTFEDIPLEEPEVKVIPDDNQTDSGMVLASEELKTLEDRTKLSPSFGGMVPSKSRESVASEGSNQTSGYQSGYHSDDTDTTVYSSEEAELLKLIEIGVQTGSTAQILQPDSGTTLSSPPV
T3 sequence (P35968 20-764): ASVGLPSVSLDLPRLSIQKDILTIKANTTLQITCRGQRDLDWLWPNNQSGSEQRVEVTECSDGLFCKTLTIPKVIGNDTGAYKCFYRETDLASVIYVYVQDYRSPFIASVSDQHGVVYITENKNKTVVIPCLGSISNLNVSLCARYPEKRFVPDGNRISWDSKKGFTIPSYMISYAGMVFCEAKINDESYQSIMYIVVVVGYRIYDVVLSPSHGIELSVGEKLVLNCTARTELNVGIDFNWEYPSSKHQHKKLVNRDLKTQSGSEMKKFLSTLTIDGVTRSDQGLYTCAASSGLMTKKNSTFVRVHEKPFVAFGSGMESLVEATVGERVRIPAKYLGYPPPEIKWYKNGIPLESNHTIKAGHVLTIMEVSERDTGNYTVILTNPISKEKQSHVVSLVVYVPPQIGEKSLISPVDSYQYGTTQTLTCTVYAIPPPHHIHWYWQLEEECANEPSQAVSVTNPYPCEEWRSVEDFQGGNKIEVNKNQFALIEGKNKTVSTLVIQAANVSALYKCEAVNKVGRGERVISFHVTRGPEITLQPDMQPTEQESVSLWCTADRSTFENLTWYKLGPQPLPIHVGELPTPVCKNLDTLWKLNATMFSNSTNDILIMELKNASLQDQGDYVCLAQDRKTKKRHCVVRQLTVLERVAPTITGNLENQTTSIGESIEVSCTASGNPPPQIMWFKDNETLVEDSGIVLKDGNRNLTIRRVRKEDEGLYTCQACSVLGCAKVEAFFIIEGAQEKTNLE

| Binder | ELISA reading (soluble KDR Ig4-7 domain [1]) | FACS Geometric Mean Fluorescence (bound VEGF165) (human KDR [2]) | ELISA reading [3] | FACS Geometric Mean Fluorescence (cynomolgus KDR) | KDR tyrosine phosphorylation in HUVEC, EC50 (nM), Average (human KDR [4]) [nM] | KDR tyrosine phosphorylation in HUVEC, EC50 (nM), N = 1 (human KDR [4]) [nM] | KDR tyrosine phosphorylation in HUVEC, EC50 (nM), N = 2 (human KDR [4]) [nM] | KDR tyrosine phosphorylation in HUVEC, Maximum Inhibition at 100 nM (% Inhibition), Average (human KDR [4]) [%] | KDR tyrosine phosphorylation in HUVEC, Maximum Inhibition at 100 nM (% Inhibition), N = 1 (human KDR [4]) [%] | KDR tyrosine phosphorylation in HUVEC, Maximum Inhibition at 100 nM (% Inhibition), N = 2 (human KDR [4]) [%] | ELISA reading [5] | Kd (human KDR [7]) [nM] | % Inhibition (human KDR [8]) [%] | ELISA reading (soluble KDR Ig4-7 domain [9]) | ELISA reading [10] | 6-keto Prostaglandin F1α release, EC50 (nM), Average (human KDR [11]) [nM] | ELISA reading (soluble KDR Ig4-7 domain [12]) | HUVEC survival, Maximum Inhibition at 50 nM (% Inhibition), Average (human KDR [6]) [%] | HUVEC survival, Maximum Inhibition at 50 nM (% Inhibition), N = 1 (human KDR [6]) [%] | HUVEC survival, Maximum Inhibition at 50 nM (% Inhibition), N = 2 (human KDR [6]) [%] | further results |
| --- | --- | --- | --- | --- | --- | --- | --- | --- | --- | --- | --- | --- | --- | --- | --- | --- | --- | --- | --- | --- | --- |
| 21H6 (antibody, V domains shown, Fully human monoclonal antibody from a XenoMouse hybridoma, purified) VH: QVQLVESGGGLVKPGGSLRLSCAASGFTFSDYYMSWIRQAPGKGLEWVSYISNSGITIYYADSVKGRFTISRDNAKNSLYLQMNSLRAGDTAVYYCAREEWYSSRWYRNFDYWGQGTLVTVSS VL: DIQMTQFSSSLSASVGDRVTITCRASQSISRYLNWYQQKPGKAPKLLIYAASSLQSGVPSRFNGSGSGTDFTLTISSLQPEDFATYYCQQSYSAPLTFGGGTKVEIK | 0.087 | 133 | 1.46 | 102 | 6.9 | 7.1 | 6.7 | 82 | 81 | 84 | 0.139 | 17.9 | -3 | 0.074 | 0.087 | 6.3 | 0.074 | 96 | 96 | 96 | 6-keto Prostaglandin F1α release, EC50 (nM), N = 1 (human KDR [11]): 7.3 nM; 6-keto Prostaglandin F1α release, EC50 (nM), N = 2 (human KDR [11]): 5.4 nM; 6-keto Prostaglandin F1α release, Maximum Inhibition (% Inhibition), Average (human KDR [11]): 77%; 6-keto Prostaglandin F1α release, Maximum Inhibition (% Inhibition), N = 1 (200 nM) (human KDR [11]): 80%; 6-keto Prostaglandin F1α release, Maximum Inhibition (% Inhibition), N = 2 (333 nM) (human KDR [11]): 75% |
| 27D10 (antibody, V domains shown, Fully human monoclonal antibody from a XenoMouse hybridoma (IgG2 or IgG4 strain), purified) VH: QLQLQESGPGLVKPSETLSLTCTVSGGSISSRSDYWGWIRQPPGKGLEWIGTIYYSGSTFYNPSLKSRVTISVDTSKNQFSLKLSSVTAADTAVYYCARQQLVLYYFDYWGQGTLVTVSS VL: not shown | 0.076 | 111 | 1.36 | 89.4 | 1.9 | 1.6 | 2.3 | 72 | 70 | 75 | 0.187 | 1.9 | 15 | 0.086 | 0.087 | – | 0.073 | 89 | 93 | 85 | ELISA reading [13]: 0.537; ELISA reading [14]: 2.14; ELISA reading [15]: 1.48 |

Binders with a lower Kd (human KDR [7]), results first:

| ELISA reading (soluble KDR Ig4-7 domain [1]) | FACS Geometric Mean Fluorescence (bound VEGF165) (human KDR [2]) | ELISA reading [3] | FACS Geometric Mean Fluorescence (cynomolgus KDR) | KDR tyrosine phosphorylation in HUVEC, EC50 (nM), Average (human KDR [4]) [nM] | KDR tyrosine phosphorylation in HUVEC, EC50 (nM), N = 1 (human KDR [4]) [nM] | KDR tyrosine phosphorylation in HUVEC, EC50 (nM), N = 2 (human KDR [4]) [nM] | KDR tyrosine phosphorylation in HUVEC, Maximum Inhibition at 100 nM (% Inhibition), Average (human KDR [4]) [%] | KDR tyrosine phosphorylation in HUVEC, Maximum Inhibition at 100 nM (% Inhibition), N = 1 (human KDR [4]) [%] | KDR tyrosine phosphorylation in HUVEC, Maximum Inhibition at 100 nM (% Inhibition), N = 2 (human KDR [4]) [%] | ELISA reading [5] | Kd (human KDR [7]) [nM] | % Inhibition (human KDR [8]) [%] | ELISA reading (soluble KDR Ig4-7 domain [9]) | ELISA reading [10] | 6-keto Prostaglandin F1α release, EC50 (nM), Average (human KDR [11]) [nM] | ELISA reading (soluble KDR Ig4-7 domain [12]) | Binder | HUVEC survival, Maximum Inhibition at 50 nM (% Inhibition), Average (human KDR [6]) [%] | HUVEC survival, Maximum Inhibition at 50 nM (% Inhibition), N = 1 (human KDR [6]) [%] | HUVEC survival, Maximum Inhibition at 50 nM (% Inhibition), N = 2 (human KDR [6]) [%] | further results |
| --- | --- | --- | --- | --- | --- | --- | --- | --- | --- | --- | --- | --- | --- | --- | --- | --- | --- | --- | --- | --- | --- |
| 0.082 | 116 | 2.15 | 115 | 1.9 | 2 | 1.9 | 75 | 74 | 77 | 0.096 | 1 | 11 | 0.078 | 0.089 | 3.2 | 0.08 | 29D4 (antibody, V domains shown, Fully human monoclonal antibody from a XenoMouse hybridoma (IgG2 or IgG4 strain), purified) VH: QLQLQESGPGLVKPSETLSLTCTVSGGSISSRSNYWGWIRQPPGKGLEWIGTIYYSGHTYYNPSLKSRVSISVDTSKNQFSLKLSSVTATDTALYYCARQQLVLYYFEYWGQGTLVTVSS VL: not shown | 92 | 89 | 95 | ELISA reading [13]: 1.17; ELISA reading [14]: 3.29; ELISA reading [15]: 2.59; 6-keto Prostaglandin F1α release, EC50 (nM), N = 1 (human KDR [11]): 3.2 nM; 6-keto Prostaglandin F1α release, EC50 (nM), N = 2 (human KDR [11]): 3.2 nM; 6-keto Prostaglandin F1α release, Maximum Inhibition (% Inhibition), Average (human KDR [11]): 56%; 6-keto Prostaglandin F1α release, Maximum Inhibition (% Inhibition), N = 1 (200 nM) (human KDR [11]): 45%; 6-keto Prostaglandin F1α release, Maximum Inhibition (% Inhibition), N = 2 (333 nM) (human KDR [11]): 67% |
| 0.114 | 112 | 1.93 | 105 | 1.8 | 1.7 | 1.9 | 75 | 71 | 79 | 0.132 | 1.8 | 14 | 0.079 | 0.09 | 4.5 | 0.076 | 32F4 (antibody, V domains shown, Fully human monoclonal antibody from a XenoMouse hybridoma (IgG2 or IgG4 strain), purified) VH: QLQLQESGPGLVKPSGTLSLSCTVSGGSISSRSDYWGWIRQPPGKGLEWIGTIYYSGNTFYNPSLKSRVTISVDTSKKQFSLKLSSVTAADTAVYYCARQQLVLYYFDYWGQGTLVTVSS VL: EIVLTQSPGTLSLSPGERATLSCRTSQSVSSSYLAWYQQKPGQAPRLLIYGASSRATGVPDRFSGSGSGTDFSLTISRLEPEDFAVYYCQQYGSSPPLTFGGGTKVEIK | 92 | 91 | 94 | ELISA reading [13]: 0.802; ELISA reading [14]: 2.62; ELISA reading [15]: 2; 6-keto Prostaglandin F1α release, EC50 (nM), N = 1 (human KDR [11]): 4.4 nM; 6-keto Prostaglandin F1α release, EC50 (nM), N = 2 (human KDR [11]): 4.6 nM; 6-keto Prostaglandin F1α release, Maximum Inhibition (% Inhibition), Average (human KDR [11]): 48%; 6-keto Prostaglandin F1α release, Maximum Inhibition (% Inhibition), N = 1 (200 nM) (human KDR [11]): 42%; 6-keto Prostaglandin F1α release, Maximum Inhibition (% Inhibition), N = 2 (333 nM) (human KDR [11]): 54% |

From patent publication US20100260765A1 (AstraZeneca / MedImmune, published 2010)
